Laboratory results: publication PMC9557730 (2022)

B1: C-terminal 3× FLAG-tagged WT Tfb2 [Saccharomyces cerevisiae] / Ssl2 [S. cerevisiae (endogenous in yeast)] (parent complex)
chain 1: MSDYSLKHSVTQYLEEIPQQVQNRLYTSPATCLAIYRILPPLAKFFIMAMVFNENEVPLLDLDKWVNSNGKLQFQNAIKSMKSLHLLIPNKSSGTLMINLNPTFKISLRNALTGGEVQNSFGVVVEENVVSLDLLDEYSANKWETILHFMVGTPLAKIPSEKVLNLLKHSKLMEEVNSTGEFKITNEGFQFLLQEINSQLWTLLLQYLKMIETSKMDLVDVLHFIFMLGALEVGKAYKIDALSETQRIMLQDMRDYGLVFQKHSNDSIFYPTKLALMLTSDTKTIRSASNAMDSVLRQNREEPSVNEDGANGKSTTDITTSDDLNKAGLKNQDIPDGSLIVETNFKIYSYSNSPLQIAVLSLFVHLKARFVNMVLGQITRESIRRALTNGITADQIIAYLETHAHPQMRRLAEEKLEKKLELDPNCKEPLQVLPPTVVDQIRLWQLELDRVITYEGSLYSDFETSQEYNLLSKYAQDIGVLLWKDDKKKKFFISKEGNSQVLDFAKRKLKKKQ
chain 2: MTDVEGYQPKSKGKIFPDMGESFFSSDEDSPATDAEIDENYDDNRETSEGRGERDTGAMVTGLKKPRKKTKSSRHTAADSSMNQMDAKDKALLQDTNSDIPADFVPDSVSGMFRSHDFSYLRLRPDHASRPLWISPSDGRIILESFSPLAEQAQDFLVTIAEPISRPSHIHEYKITAYSLYAAVSVGLETDDIISVLDRLSKVPVAESIINFIKGATISYGKVKLVIKHNRYFVETTQADILQMLLNDSVIGPLRIDSDHQVQPPEDVLQQQLQQTAGKPATNVNPNDVEAVFSAVIGGDNEREEEDDDIDAVHSFEIANESVEVVKKRCQEIDYPVLEEYDFRNDHRNPDLDIDLKPSTQIRPYQEKSLSKMFGNGRARSGIIVLPCGAGKTLVGITAACTIKKSVIVLCTSSVSVMQWRQQFLQWCTLQPENCAVFTSDNKEMFQTESGLVVSTYSMVANTRNRSHDSQKVMDFLTGREWGFIILDEVHVVPAAMFRRVVSTIAAHAKLGLTATLVREDDKIGDLNFLIGPKLYEANWMELSQKGHIANVQCAEVWCPMTAEFYQEYLRETARKRMLLYIMNPTKFQACQFLIQYHERRGDKIIVFSDNVYALQEYALKMGKPFIYGSTPQQERMNILQNFQYNDQINTIFLSKVGDTSIDLPEATCLIQISSHYGSRRQEAQRLGRILRAKRRNDEGFNAFFYSLVSKDTQEMYYSTKRQAFLVDQGYAFKVITHLHGMENIPNLAYASPRERRELLQEVLLKNEEAAGIEVGDDADNSVGRGSNGHKRFKSKAVRGEGSLSGLAGGEDMAYMEYSTNKNKELKEHHPLIRKMYYKNLKK

Variants of: B1
Assay: FLAG IP and Western blot; whole-cell extracts; FLAG-tagged Tfb2 variants coexpressed with endogenous Tfb2; two biological replicates; read off a plot

Row | Variant | response
1 | chain 1 MSDYSLKHSVTQYLEEIPQQVQNRLYTSPATCLAIYRILPPLAKFFIMAMVFNENEVPLLDLDKWVNSNGKLQFQNAIKSMKSLHLLIPNKSSGTLMINLNPTFKISLRNALTGGEVQNSFGVVVEENVVSLDLLDEYSANKWETILHFMVGTPLAKIPSEKVLNLLKHSKLMEEVNSTGEFKITNEGFQFLLQEINSQLWTLLLQYLKMIETSKMDLVDVLHFIFMLGALEVGKAYKIDALSETQRIMLQDMRDYGLVFQKHSNDSIFYPTKLALMLTSDTKTIRSASNAMDSVLRQNREEPSVNEDGANGKSTTDITTSDDLNKAGLKNQDIPDGSLIVETNFKIYSYSNSPLQIAVLSLFVHLKARFVNMVLGQITRESIRRALTNGITADQIIAAAETHAHPQMRRLAEEKLEKKLELDPNCKEPLQVLPPTVVDQIRLWQLELDRVITYEGSLYSDFETSQEYNLLSKYAQDIGVLLWKDDKKKKFFISKEGNSQVLDFAKRKLKKKQ [chain 1 Y399A, chain 1 L400A] | ~0.28 Western Signal/Tfb2-FLAG
2 | chain 1 MSDYSLKHSVTQYLEEIPQQVQNRLYTSPATCLAIYRILPPLAKFFIMAMVFNENEVPLLDLDKWVNSNGKLQFQNAIKSMKSLHLLIPNKSSGTLMINLNPTFKISLRNALTGGEVQNSFGVVVEENVVSLDLLDEYSANKWETILHFMVGTPLAKIPSEKVLNLLKHSKLMEEVNSTGEFKITNEGFQFLLQEINSQLWTLLLQYLKMIETSKMDLVDVLHFIFMLGALEVGKAYKIDALSETQRIMLQDMRDYGLVFQKHSNDSIFYPTKLALMLTSDTKTIRSASNAMDSVLRQNREEPSVNEDGANGKSTTDITTSDDLNKAGLKNQDIPDGSLIVETNFKAASASNSPLQIAVLSLFVHLKARFVNMVLGQITRESIRRALTNGITADQIIAYLETHAHPQMRRLAEEKLEKKLELDPNCKEPLQVLPPTVVDQIRLWQLELDRVITYEGSLYSDFETSQEYNLLSKYAQDIGVLLWKDDKKKKFFISKEGNSQVLDFAKRKLKKKQ [chain 1 I347A, chain 1 Y348A, chain 1 Y350A] | ~0.14 Western Signal/Tfb2-FLAG
3 | chain 1 MSDYSLKHSVTQYLEEIPQQVQNRLYTSPATCLAIYRILPPLAKFFIMAMVFNENEVPLLDLDKWVNSNGKLQFQNAIKSMKSLHLLIPNKSSGTLMINLNPTFKISLRNALTGGEVQNSFGVVVEENVVSLDLLDEYSANKWETILHFMVGTPLAKIPSEKVLNLLKHSKLMEEVNSTGEFKITNEGFQFLLQEINSQLWTLLLQYLKMIETSKMDLVDVLHFIFMLGALEVGKAYKIDALSETQRIMLQDMRDYGLVFQKHSNDSIFYPTKLALMLTSDTKTIRSASNAMDSVLRQNREEPSVNEDGANGKSTTDITTSDDLNKAGLKNQDIPDGSLIVETNFKIYSYSNSPLQIAVLSLFVHLKARFVNMVLGQITRESIRRALTNGITADAAAAYLETHAHPQMRRLAEEKLEKKLELDPNCKEPLQVLPPTVVDQIRLWQLELDRVITYEGSLYSDFETSQEYNLLSKYAQDIGVLLWKDDKKKKFFISKEGNSQVLDFAKRKLKKKQ [chain 1 Q395A, chain 1 I396A, chain 1 I397A] | ~0.35 Western Signal/Tfb2-FLAG

Second part, the variant after the results:

Row | response | Variant
4 | ~0.29 Western Signal/Tfb2-FLAG | chain 1 MSDYSLKHSVTQYLEEIPQQVQNRLYTSPATCLAIYRILPPLAKFFIMAMVFNENEVPLLDLDKWVNSNGKLQFQNAIKSMKSLHLLIPNKSSGTLMINLNPTFKISLRNALTGGEVQNSFGVVVEENVVSLDLLDEYSANKWETILHFMVGTPLAKIPSEKVLNLLKHSKLMEEVNSTGEFKITNEGFQFLLQEINSQLWTLLLQYLKMIETSKMDLVDVLHFIFMLGALEVGKAYKIDALSETQRIMLQDMRDYGLVFQKHSNDSIFYPTKLALMLTSDTKTIRSASNAMDSVLRQNREEPSVNEDGANGKSTTDITTSDDLNKAGLKNQDIPDGSLIVETNFKIYSYSNSPLQIAVLSLFVHLKARFVNMVLGQAARESIRRALTNGITADQIIAYLETHAHPQMRRLAEEKLEKKLELDPNCKEPLQVLPPTVVDQIRLWQLELDRVITYEGSLYSDFETSQEYNLLSKYAQDIGVLLWKDDKKKKFFISKEGNSQVLDFAKRKLKKKQ [chain 1 I378A, chain 1 T379A]
5 | ~0.38 Western Signal/Tfb2-FLAG | chain 1 MSDYSLKHSVTQYLEEIPQQVQNRLYTSPATCLAIYRILPPLAKFFIMAMVFNENEVPLLDLDKWVNSNGKLQFQNAIKSMKSLHLLIPNKSSGTLMINLNPTFKISLRNALTGGEVQNSFGVVVEENVVSLDLLDEYSANKWETILHFMVGTPLAKIPSEKVLNLLKHSKLMEEVNSTGEFKITNEGFQFLLQEINSQLWTLLLQYLKMIETSKMDLVDVLHFIFMLGALEVGKAYKIDALSETQRIMLQDMRDYGLVFQKHSNDSIFYPTKLALMLTSDTKTIRSASNAMDSVLRQNREEPSVNEDGANGKSTTDITTSDDLNKAGLKNQDIPDGSLIVETNFKIYSYSNSPLQIAVLSLFVHLKARFVNMVLGQITRESIRRALTNGITADQAAAYLETHAHPQMRRLAEEKLEKKLELDPNCKEPLQVLPPTVVDQIRLWQLELDRVITYEGSLYSDFETSQEYNLLSKYAQDIGVLLWKDDKKKKFFISKEGNSQVLDFAKRKLKKKQ [chain 1 I396A, chain 1 I397A]
6 | ~0.085 Western Signal/Tfb2-FLAG | chain 1 MSDYSLKHSVTQYLEEIPQQVQNRLYTSPATCLAIYRILPPLAKFFIMAMVFNENEVPLLDLDKWVNSNGKLQFQNAIKSMKSLHLLIPNKSSGTLMINLNPTFKISLRNALTGGEVQNSFGVVVEENVVSLDLLDEYSANKWETILHFMVGTPLAKIPSEKVLNLLKHSKLMEEVNSTGEFKITNEGFQFLLQEINSQLWTLLLQYLKMIETSKMDLVDVLHFIFMLGALEVGKAYKIDALSETQRIMLQDMRDYGLVFQKHSNDSIFYPTKLALMLTSDTKTIRSASNAMDSVLRQNREEPSVNEDGANGKSTTDITTSDDLNKAGLKNQDIPDGSLIVFTNFKIYSYSNSPLQIAVLSLFVHLKARFVNMVLGQITRESIRRALTNGITADQIIAYLETHAHPQMRRLAEEKLEKKLELDPNCKEPLQVLPPTVVDQIRLWQLELDRVITYEGSLYSDFETSQEYNLLSKYAQDIGVLLWKDDKKKKFFISKEGNSQVLDFAKRKLKKKQ [chain 1 E342F]
